Results as given in patent publication US20260265379A1 (IMCHECK THERAPEUTICS, published 2026).

B1: bsAb003 (bispecific antibody, human IgG1, kappa)
heavy: QVQLVQSGAEVKKPGASVKLSCKASGYIFTRYYMYWVKQRPGQGLEWIGEINPNNGGTKFNEKFKNRATLTVDKSISTAYMELSRLRSDDTAVYYCSREDDYDGTPFAMDYWGQGTLVTVSSASTKGPSVFPLAPSSKSTSGGTAALGCLVKDYFPEPVTVSWNSGALTSGVHTFPAVLQSSGLYSLSSVVTVPSSSLGTQTYICNVNHKPSNTKVDKRVEPKSCDKTHTCPPCPAPEFEGGPSVFLFPPKPKDTLMISRTPEVTCVVVDVSHEDPEVKFNWYVDGVEVHNAKTKPREEQYNSTYRVVSVLTVLHQDWLNGKEYKCKVSNKALPASIEKTISKAKGQPREPQVYTLPPSREEMTKNQVSLTCLVKGFYPSDIAVEWESNGQPENNYKTTPPVLDSDGSFFLYSKLTVDKSRWQQGNVFSCSVMHEALHNHYTQKSLSLSPGGGGGSGGGGSGGGGSGGGGSEVQLVESGGGLVQPGGSLRLSCAASGFTFSRYWMSWVRQAPGKGLEWVANIKQDGSEKYYVDSVKGRFTISRDNAKNSLYLQMNSLRAEDTAVYYCAREGGWFGELAFDYWGQGTLVTVSSGGGGSGGGGSGGGGSGGGGSEIVLTQSPGTLSLSPGERATLSCRASQRVSSSYLAWYQQKPGQAPRLLIYDASSRATGIPDRFSGSGSGTDFTLTISRLEPEDFAVYYCQQYGSLPWTFGQGTKVEIK
light: not shown
notes: IgG anti-BTN3A, scFv anti-PD-L1 (VH-VL) at heavy chain C-terminus
B2: bsAb001 (bispecific antibody, human IgG1, kappa)
heavy: QVQLVQSGAEVKKPGASVKLSCKASGYIFTRYYMYWVKQRPGQGLEWIGEINPNNGGTKFNEKFKNRATLTVDKSISTAYMELSRLRSDDTAVYYCSREDDYDGTPFAMDYWGQGTLVTVSSASTKGPSVFPLAPSSKSTSGGTAALGCLVKDYFPEPVTVSWNSGALTSGVHTFPAVLQSSGLYSLSSVVTVPSSSLGTQTYICNVNHKPSNTKVDKRVEPKSCDKTHTCPPCPAPEFEGGPSVFLFPPKPKDTLMISRTPEVTCVVVDVSHEDPEVKFNWYVDGVEVHNAKTKPREEQYNSTYRVVSVLTVLHQDWLNGKEYKCKVSNKALPASIEKTISKAKGQPREPQVYTLPPSREEMTKNQVSLTCLVKGFYPSDIAVEWESNGQPENNYKTTPPVLDSDGSFFLYSKLTVDKSRWQQGNVFSCSVMHEALHNHYTQKSLSLSPGGGGGSGGGGSGGGGSGGGGSQVQLVQSGVEVKKPGASVKVSCKASGYTFTNYYMYWVRQAPGQGLEWMGGINPSNGGTNFNEKFKNRVTLTTDSSTTTAYMELKSLQFDDTAVYYCARRDYRFDMGFDYWGQGTTVTVSSGGGGSGGGGSGGGGSGGGGSEIVLTQSPATLSLSPGERATLSCRASKGVSTSGYSYLHWYQQKPGQAPRLLIYLASYLESGVPARFSGSGSGTDFTLTISSLEPEDFAVYYCQHSRDLPLTFGGGTKVEIK
light: not shown
notes: IgG anti-BTN3A, scFv anti-PD-1 (VH-VL) at heavy chain C-terminus
B3: bsAb014 (bispecific antibody)
heavy: QVQLVQSGAEVKKPGASVKLSCKASGYIFTRYYMYWVKQRPGQGLEWIGEINPNNGGTKFNEKFKNRATLTVDKSISTAYMELSRLRSDDTAVYYCSREDDYDGTPFAMDYWGQGTLVTVSSASTKGPSVFPLAPSSKSTSGGTAALGCLVKDYFPEPVTVSWNSGALTSGVHTFPAVLQSSGLYSLSSVVTVPSSSLGTQTYICNVNHKPSNTKVDKRVEPKSCDKTHTCPPCPAPEFEGGPSVFLFPPKPKDTLMISRTPEVTCVVVDVSHEDPEVKFNWYVDGVEVHNAKTKPREEQYNSTYRVVSVLTVLHQDWLNGKEYKCKVSNKALPASIEKTISKAKGQPREPQVYTLPPSREEMTKNQVSLTCLVKGFYPSDIAVEWESNGQPENNYKTTPPVLDSDGSFFLYSKLTVDKSRWQQGNVFSCSVMHEALHNHYTQKSLSLSPG
light: not shown
notes: IgG anti-BTN3A, scFv anti-PD-1
B4: bsAb042 (bispecific antibody)
heavy 1: QVQLVQSGVEVKKPGASVKVSCKASGYTFTNYYMYWVRQAPGQGLEWMGGINPSNGGTNFNEKFKNRVTLTTDSSTTTAYMELKSLQFDDTAVYYCARRDYRFDMGFDYWGQGTTVTVSS
heavy 2: QVQLVQSGAEVKKPGASVKLSCKASGYIFTRYYMYWVKQRPGQGLEWIGEINPNNGGTKFNEKFKNRATLTVDKSISTAYMELSRLRSDDTAVYYCSREDDYDGTPFAMDYWGQGTLVTVSSGGGGSGGGGSGGGGSGGGGSDIQMTQSPSSLSASVGDRVTITCHASQNINVWLSWYQQKPGKAPKLLIYKASNLHTGVPSRFTGSGSGTDFTFTISSLQPEDIATYYCQQGQTYPYTFGQGTKLEIKGGGGSGGGGSGGGGSGGGGS
light: EIVLTQSPATLSLSPGERATLSCRASKGVSTSGYSYLHWYQQKPGQAPRLLIYLASYLESGVPARFSGSGSGTDFTLTISSLEPEDFAVYYCQHSRDLPLTFGGGTKVEIKRTVAAPSVFIFPPSDEQLKSGTASVVCLLNNFYPREAKVQWKVDNALQSGNSQESVTEQDSKDSTYSLSSTLTLSKADYEKHKVYACEVTHQGLSSPVTKSFNRGECGGGGSGGGGSGGGGSGGGGSDIQMTQSPSSLSASVGDRVTITCHASQNINVWLSWYQQKPGKAPKLLIYKASNLHTGVPSRFTGSGSGTDFTFTISSLQPEDIATYYCQQGQTYPYTFGQGTKLEIKGGGGSGGGGSGGGGSGGGGSQVQLVQSGAEVKKPGASVKLSCKASGYIFTRYYMYWVKQRPGQGLEWIGEINPNNGGTKFNEKFKNRATLTVDKSISTAYMELSRLRSDDTAVYYCSREDDYDGTPFAMDYWGQGTLVTVSS
notes: one Fab arm anti-PD-1, two scFv anti-BTN3A; not shown: IgG1 CH1-hinge-CH2-CH3; CH2-CH3 (Fc)
B5: bsAb018 (bispecific antibody)
heavy: EIVLTQSPATLSLSPGERATLSCRASKGVSTSGYSYLHWYQQKPGQAPRLLIYLASYLESGVPARFSGSGSGTDFTLTISSLEPEDFAVYYCQHSRDLPLTFGGGTKVEIKGGGGSGGGGSGGGGSGGGGSQVQLVQSGVEVKKPGASVKVSCKASGYTFTNYYMYWVRQAPGQGLEWMGGINPSNGGTNFNEKFKNRVTLTTDSSTTTAYMELKSLQFDDTAVYYCARRDYRFDMGFDYWGQGTTVTVSSGGGGSGGGGSGGGGSGGGGSQVQLVQSGAEVKKPGASVKLSCKASGYIFTRYYMYWVKQRPGQGLEWIGEINPNNGGTKFNEKFKNRATLTVDKSISTAYMELSRLRSDDTAVYYCSREDDYDGTPFAMDYWGQGTLVTVSSASTKGPSVFPLAPSSKSTSGGTAALGCLVKDYFPEPVTVSWNSGALTSGVHTFPAVLQSSGLYSLSSVVTVPSSSLGTQTYICNVNHKPSNTKVDKRVEPKSCDKTHTCPPCPAPEFEGGPSVFLFPPKPKDTLMISRTPEVTCVVVDVSHEDPEVKFNWYVDGVEVHNAKTKPREEQYNSTYRVVSVLTVLHQDWLNGKEYKCKVSNKALPASIEKTISKAKGQPREPQVYTLPPSREEMTKNQVSLTCLVKGFYPSDIAVEWESNGQPENNYKTTPPVLDSDGSFFLYSKLTVDKSRWQQGNVFSCSVMHEALHNHYTQKSLSLSPG
light: not shown
notes: as for B3
B6: bsAb026 (bispecific antibody)
heavy: QVQLVQSGAEVKKPGASVKLSCKASGYIFTRYYMYWVKQRPGQGLEWIGEINPNNGGTKFNEKFKNRATLTVDKSISTAYMELSRLRSDDTAVYYCSREDDYDGTPFAMDYWGQGTLVTVSSASTKGPSVFPLAPSSKSTSGGTAALGCLVKDYFPEPVTVSWNSGALTSGVHTFPAVLQSSGLYSLSSVVTVPSSSLGTQTYICNVNHKPSNTKVDKRVEPKSCDKTHTCPPCPAPEFEGGPSVFLFPPKPKDTLMISRTPEVTCVVVDVSHEDPEVKFNWYVDGVEVHNAKTKPREEQYNSTYRVVSVLTVLHQDWLNGKEYKCKVSNKALPASIEKTISKAKGQPREPQVYTLPPSREEMTKNQVSLTCLVKGFYPSDIAVEWESNGQPENNYKTTPPVLDSDGSFFLYSKLTVDKSRWQQGNVFSCSVMHEALHNHYTQKSLSLSPGGGGGSGGGGSGGGGSGGGGSQVQLVQSGVEVKKPGASVKVSCKASGYTFTNYYMYWVRQAPGQGLEWMGGINPSNGGTNFNEKFKNRVTLTTDSSTTTAYMELKSLQFDDTAVYYCARRDYRFDMGFDYWGQGTTVTVSSASTKGPSVFPLAPSSKSTSGGTAALGCLVKDYFPEPVTVSWNSGALTSGVHTFPAVLQSSGLYSLSSVVTVPSSSLGTQTYICNVNHKPSNTKVDKKVEPKSCDKTHTGGSSGSGSGSTGTSSSGTGTSAGTTGTSASTSGSGSGGGGGSGGGGSAGGEIVLTQSPATLSLSPGERATLSCRASKGVSTSGYSYLHWYQQKPGQAPRLLIYLASYLESGVPARFSGSGSGTDFTLTISSLEPEDFAVYYCQHSRDLPLTFGGGTKVEIKRTVAAPSVFIFPPSDEQLKSGTASVVCLLNNFYPREAKVQWKVDNALQSGNSQESVTEQDSKDSTYSLSSTLTLSKADYEKHKVYACEVTHQGLSSPVTKSFNRGEC
light: not shown
notes: IgG anti-BTN3A, scFab anti-PD-1; formula printed IgG(H)-VH-CH1-linker1-VL-CL-linker2-
B7: ICT01 (antibody, V domains shown)
VH: QVQLVQSGAEVKKPGASVKLSCKASGYIFTRYYMYWVKQRPGQGLEWIGEINPNNGGTKFNEKFKNRATLTVDKSISTAYMELSRLRSDDTAVYYCSREDDYDGTPFAMDYWGQGTLVTVSS
VL: DIQMTQSPSSLSASVGDRVTITCHASQNINVWLSWYQQKPGKAPKLLIYKASNLHTGVPSRFTGSGSGTDFTFTISSLQPEDIATYYCQQGQTYPYTFGQGTKLEIK
notes: also called anti-BTN3A mAb; mAb 7.2

Legend:
[1] = biological target: T1, recombinant human BTN3A1 (human, UniProt O00481 30-254); experiment: SPR
T1 construct: Soluble form of the antigen used in SPR; also called rhBTN3A1; recombinant BTN3A1 protein
T1 sequence (O00481 30-254 limits assumed): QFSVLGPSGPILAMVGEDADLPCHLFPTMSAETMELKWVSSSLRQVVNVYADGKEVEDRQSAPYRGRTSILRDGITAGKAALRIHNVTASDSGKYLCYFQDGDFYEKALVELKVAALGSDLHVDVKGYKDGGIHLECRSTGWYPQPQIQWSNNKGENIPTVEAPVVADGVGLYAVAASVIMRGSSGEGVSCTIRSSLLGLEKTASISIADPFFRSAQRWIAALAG
Description: SPR measures the interactions between two or more biomolecules. In capture kinetics analysis, an antibody is immobilized onto a gold-plated prism. The immobilized antibody is referred to as the ligand. An injection of antigen, referred to as the analyte, is carried out, often as a concentration series. The captured analytes are removed from the sensor chip surface using a regenerating agent, for example a low pH or high ionic strength solution. If investigating binding to several analytes, the antibodies are recaptured from solution before each analyte titration series. The instrument records the changes in refractive indexes (due to the accumulation or depletion of mass) in time and plots the results as sensorgrams.
Affinity measurements with respect to BTN3A, PD-1 and PD-L1 were performed by SPR technology, for instance in a Carterra LSA Platform instrument using a soluble form of the antigen as the analyte and the antibody as the ligand. Binding was also assessed through in cellulo binding assays, on cell lines (e.g. HEK293T cells) genetically modified to express the targets of interest or genetically modified to extinct target expression.
The 69 produced bsAbs and control mAbs were also evaluated for their binding affinity to recombinant proteins by SPR assays. The equilibrium dissociation constant (KD) was then calculated for constructs showing detectable binding.

[2] = biological target: T2, PD-L1 at the surface of transduced cells (UniProt Q9NZQ7 19-290, limits assumed); experiment: cell-based or functional assay
T2 sequence (Q9NZQ7 19-290 limits assumed): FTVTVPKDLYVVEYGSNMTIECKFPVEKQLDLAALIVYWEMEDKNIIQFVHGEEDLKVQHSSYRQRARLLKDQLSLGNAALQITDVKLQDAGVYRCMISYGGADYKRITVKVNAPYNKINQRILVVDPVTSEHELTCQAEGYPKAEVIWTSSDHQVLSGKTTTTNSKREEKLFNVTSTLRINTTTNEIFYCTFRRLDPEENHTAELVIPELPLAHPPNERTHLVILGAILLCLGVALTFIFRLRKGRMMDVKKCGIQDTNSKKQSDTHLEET

[3] = biological target: T2, PD-L1 at the surface of transduced cells; experiment: flow cytometry, CHO-PD-L1 cells
[4] = biological target: T3, BTN3A1 at the surface of HEK-BTN3A1 cells (human, UniProt O00481 30-513); experiment: flow cytometry, HEK-BTN3A1 cells
T3 construct: HEK 293T BTN2A/BTN3A KO cells transduced with a BTN3A1 expressing vector
T3 sequence (O00481 30-513 limits assumed): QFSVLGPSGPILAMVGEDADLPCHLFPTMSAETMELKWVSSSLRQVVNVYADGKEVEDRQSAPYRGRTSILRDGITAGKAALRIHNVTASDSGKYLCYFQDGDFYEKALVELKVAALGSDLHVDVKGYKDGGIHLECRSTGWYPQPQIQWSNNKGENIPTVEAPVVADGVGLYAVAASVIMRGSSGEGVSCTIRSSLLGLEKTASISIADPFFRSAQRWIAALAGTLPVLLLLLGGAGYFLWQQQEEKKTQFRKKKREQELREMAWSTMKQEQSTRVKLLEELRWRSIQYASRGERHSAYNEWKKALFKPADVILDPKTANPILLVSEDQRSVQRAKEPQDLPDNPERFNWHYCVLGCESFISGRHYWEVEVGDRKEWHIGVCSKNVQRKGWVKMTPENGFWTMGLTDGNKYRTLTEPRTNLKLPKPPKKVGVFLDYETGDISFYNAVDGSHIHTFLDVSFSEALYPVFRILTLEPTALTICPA

[5] = biological target: T4, PD-1 at the surface of Jurkat-PD-1 cells (human, UniProt Q15116 25-288); experiment: cell-based or functional assay
T4 sequence (Q15116 25-288): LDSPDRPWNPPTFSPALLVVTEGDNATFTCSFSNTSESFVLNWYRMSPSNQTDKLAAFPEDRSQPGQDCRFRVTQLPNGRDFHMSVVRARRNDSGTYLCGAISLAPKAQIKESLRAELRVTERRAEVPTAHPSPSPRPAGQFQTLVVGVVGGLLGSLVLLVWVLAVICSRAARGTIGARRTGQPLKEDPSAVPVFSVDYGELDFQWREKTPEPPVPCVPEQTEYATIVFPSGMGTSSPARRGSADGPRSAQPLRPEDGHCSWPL

[6] = biological target: T4, PD-1 at the surface of Jurkat-PD-1 cells; experiment: flow cytometry, Jurkat-PD-1 cells

| Binder | Kd [1] [nM] | Jurkat-PD-1 activation at 10 nM [2] | Jurkat-PD-1 activation at 100 nM [2] | MFI at 10 nM [3] [MFI] | MFI at 10 nM [4] [MFI] | MFI at 100 nM [4] [MFI] | Jurkat-PD-1 activation at 10 nM [5] | MFI at 10 nM [6] [MFI] | MFI at 100 nM [6] [MFI] | Jurkat-PD-1 activation at 100 nM [5] |
| --- | --- | --- | --- | --- | --- | --- | --- | --- | --- | --- |
| B1 | 0.073 | 8.5 fold-change to medium | 6.9 fold-change to medium | 722000 | 500000 | 950000 |  |  |  |  |
| B2 |  |  |  |  | 507000 | 710000 | 8 fold-change to medium | 179000 | 396000 |  |
| B3 | 0.083 |  |  |  | 464000 | 812000 | 5.9 fold-change to medium | 165000 | 290000 | 1.9 fold-change to medium |
| B4 | 0.093 |  |  |  | 824000 | 1.24e+06 |  | 212000 | 362000 |  |
| B5 | 0.212 |  |  |  | 502000 | 1.08e+06 |  |  | 347000 |  |
| B6 | 0.068 |  |  |  | 410000 | 1.03e+06 |  | 73300 | 257000 |  |
| B7 | 0.073 |  |  |  | 1.01e+06 | 1.82e+06 |  |  |  |  |
